Results as given in patent US20170224783.

Molecular target: pyruvate dehydrogenase complex (PDHC) immuno-captured from tissue lysates of E3 mice

B1: TAT-LAD fusion protein (His tag, TAT peptide, human LAD precursor) (protein)
chain: MGSSHHHHHHSSGLVPRGSHMRKKRRQRRRGSDPQSWSRVYCSLAKRGHFNRISHGLQGLSAVPLRTYADQPIDADVTVIGSGPGGYVAAIKAAQLGFKTVCIEKNETLGGTCLNVGCIPSKALLNNSHYYHMAHGTDFASRGIEMSEVRLNLDKMMEQKSTAVKALTGGIAHLFKQNKVVHVNGYGKITGKNQVTATKADGGTQVIDTKNILIATGSEVTPFPGITIDEDTIVSSTGALSLKKVPEKMVVIGAGVIGVELGSVWQRLGADVTAVEFLGHVGGVGIDMEISKNFQRILQKQGFKFKLNTKVTGATKKSDGKIDVSIEAASGGKAEVITCDVLLVCIGRRPFTKNLGLEELGIELDPRGRIPVNTRFQTKIPNIYAIGDVVAGPMLAHKAEDEGIICVEGMAGGAVHIDYNCVPSVIYTHPEVAWVGKSEEQLKEEGIEYKVGKFPFAANSRAKTNADTDGMVKILGQKSTDRVLGAHILGPGAGEMVNEAALALEYGASCEDIARVCHAHPTLSEAFREANLAASFGKSINFE
PDHC enzymatic activity of immuno-captured PDHC, the three organs at 24 hours post-treatment, percent increase: increase in PDHC enzymatic activity (40-65%) was also evident in the three organs at 24 hours post-treatment
